The source of these data is PMC9237092, “Structural basis for defective membrane targeting of mutant enzyme in human VLCAD deficiency” (Nature Communications, 2022).

A word on the stoichiometry N: it is a count of units in the complex or per binding partner.

The chains are these.
B1: full-length human VLCAD (very long-chain acyl-CoA dehydrogenase) lacking its cleavable leader sequence, wild type (enzyme, UniProt P49748 41-655, looked up)
chain: AGGAAQLALDKSDSHPSDALTRKKPAKAESKSFAVGMFKGQLTTDQVFPYPSVLNEEQTQFLKELVEPVSRFFEEVNDPAKNDALEMVEETTWQGLKELGAFGLQVPSELGGVGLCNTQYARLVEIVGMHDLGVGITLGAHQSIGFKGILLFGTKAQKEKYLPKLASGETVAAFCLTEPSSGSDAASIRTSAVPSPCGKYYTLNGSKLWISNGGLADIFTVFAKTPVTDPATGAVKEKITAFVVERGFGGITHGPPEKKMGIKASNTAEVFFDGVRVPSENVLGEVGSGFKVAMHILNNGRFGMAAALAGTMRGIIAKAVDHATNRTQFGEKIHNFGLIQEKLARMVMLQYVTESMAYMVSANMDQGATDFQIEAAISKIFGSEAAWKVTDECIQIMGGMGFMKEPGVERVLRDLRIFRIFEGTNDILRLFVALQGCMDKGKELSGLGSALKNPFGNAGLLLGEAGKQLRRRAGLGSGLSLSGLVHPELSRSGELAVRALEQFATVVEAKLIKHKKGIVNEQFLLQRLADGAIDLYAMVVVLSRASRSLSEGHPTAQHEKMLCDTWCIEAAARIREGMAALQSDPWQQELYRNFKSISKALVERGGVVTSNPLGF
notes: mature protein aa 1-615. numbers count on: the mature protein; pET19b vector; also called wild-type VLCAD; full-length VLCAD; source: E. coli BL21(DE3), purified (Ni-NTA, SEC)
B2: full-length human VLCAD A450P (enzyme, UniProt P49748 41-655, looked up)
chain: AGGAAQLALDKSDSHPSDALTRKKPAKAESKSFAVGMFKGQLTTDQVFPYPSVLNEEQTQFLKELVEPVSRFFEEVNDPAKNDALEMVEETTWQGLKELGAFGLQVPSELGGVGLCNTQYARLVEIVGMHDLGVGITLGAHQSIGFKGILLFGTKAQKEKYLPKLASGETVAAFCLTEPSSGSDAASIRTSAVPSPCGKYYTLNGSKLWISNGGLADIFTVFAKTPVTDPATGAVKEKITAFVVERGFGGITHGPPEKKMGIKASNTAEVFFDGVRVPSENVLGEVGSGFKVAMHILNNGRFGMAAALAGTMRGIIAKAVDHATNRTQFGEKIHNFGLIQEKLARMVMLQYVTESMAYMVSANMDQGATDFQIEAAISKIFGSEAAWKVTDECIQIMGGMGFMKEPGVERVLRDLRIFRIFEGTNDILRLFVALQGCMDKGKELSGLGSPLKNPFGNAGLLLGEAGKQLRRRAGLGSGLSLSGLVHPELSRSGELAVRALEQFATVVEAKLIKHKKGIVNEQFLLQRLADGAIDLYAMVVVLSRASRSLSEGHPTAQHEKMLCDTWCIEAAARIREGMAALQSDPWQQELYRNFKSISKALVERGGVVTSNPLGF
notes: Mutation observed in patients with VLCAD deficiency; made by site-directed mutagenesis of the pET19b construct; also called A450P variant; source: E. coli BL21(DE3), purified (Ni-NTA, SEC)
B3: full-length human VLCAD L462P (enzyme, UniProt P49748 41-655, looked up)
chain: AGGAAQLALDKSDSHPSDALTRKKPAKAESKSFAVGMFKGQLTTDQVFPYPSVLNEEQTQFLKELVEPVSRFFEEVNDPAKNDALEMVEETTWQGLKELGAFGLQVPSELGGVGLCNTQYARLVEIVGMHDLGVGITLGAHQSIGFKGILLFGTKAQKEKYLPKLASGETVAAFCLTEPSSGSDAASIRTSAVPSPCGKYYTLNGSKLWISNGGLADIFTVFAKTPVTDPATGAVKEKITAFVVERGFGGITHGPPEKKMGIKASNTAEVFFDGVRVPSENVLGEVGSGFKVAMHILNNGRFGMAAALAGTMRGIIAKAVDHATNRTQFGEKIHNFGLIQEKLARMVMLQYVTESMAYMVSANMDQGATDFQIEAAISKIFGSEAAWKVTDECIQIMGGMGFMKEPGVERVLRDLRIFRIFEGTNDILRLFVALQGCMDKGKELSGLGSALKNPFGNAGLLPGEAGKQLRRRAGLGSGLSLSGLVHPELSRSGELAVRALEQFATVVEAKLIKHKKGIVNEQFLLQRLADGAIDLYAMVVVLSRASRSLSEGHPTAQHEKMLCDTWCIEAAARIREGMAALQSDPWQQELYRNFKSISKALVERGGVVTSNPLGF
notes: Mutation observed in patients with VLCAD deficiency; made by site-directed mutagenesis of the pET19b construct; also called L462P mutant; source: E. coli BL21(DE3), purified (Ni-NTA, SEC)

This data set deals with the molecule itself. Nature of the data set: SEC; Superdex 200 10/300 GL, 4 °C, 250 mM NaCl, 50 mM Tris, pH 8.0; purified VLCAD proteins; peak at ~150 kDa. For orientation: In gel filtration, larger molecules generally elute earlier.
For the protein B1, the “stoichiometry N” value amounted to 2.
Turning to B2, the “stoichiometry N” value worked out at 2.
In the case of B3 it was 2.
